One molecule from US20120328625A1 can be followed below.

In assay [1] the target is full length human Shh expressed on the cell surface (human) (UniProt Q15465). The assay can be described thus: cell-based or functional assay.
For assay [2], the target named is Shh-N in conditioned medium (human) (UniProt Q15465). The assay can be described thus: cell-based or functional assay.

B1: rmHIP (protein, UniProt Q7TN16 18-678, looked up)
chain: FFEGDAKFGERNEGSGARRRRCLNGNPPKRLKRRDRRVMSQLELLSGGEILCGGFYPRVSCCLQSDSPGLGRLENKIFSATNNSECSRLLEEIQCAPCSPHSQSLFYTPERDVLDGDLALPLLCKDYCKEFFYTCRGHIPGLLQTTADEFCFYYARKDAGLCFPDFPRKQVRGPASNYLGQMEDYEKVGGISRKHKHNCLCVQEVMSGLRQPVSAVHSGDGSHRLFILEKEGYVKILTPEGELFKEPYLDIHKLVQSGIKGGDERGLLSLAFHPNYKKNGKLYVSYTTNQERWAIGPHDHILRVVEYTVSRKNPHQVDVRTARVFLEVAELHRKHLGGQLLFGPDGFLYIILGDGMITLDDMEEMDGLSDFTGSVLRLDVDTDMCNVPYSIPRSNPHFNSTNQPPEVFAHGLHDPGRCAVDRHPTDININLTILCSDSNGKNRSSARILQIIKGRDYESEPSLLEFKPFSNGPLVGGFVYRGCQSERLYGSYVFGDRNGNFLTLQQSPVTKQWQEKPLCLGASSSCRGYFSGHILGFGEDELGEVYILSSSKSMTQTHNGKLYKIVDPKRPLMPEECRVTVQPAQPLTSDCSRLCRNGYYTPTGKCCCSPGWEGDFCRIAKCEPACRHGGVCVRPNKCLCKKGYLGPQCEQVDRNVRRVTR
Consider B1, for which, in assay [1], the % Inhibition of Gli1 reporter, Co-Culture N = 1, 4 µg/ml came to 124%; the % Inhibition of Gli1 reporter, Co-Culture N = 2, 4 µg/ml was determined as 96%; the % Inhibition of Gli1 reporter, Co-Culture N = 3, 4 µg/ml stood at 121%. In addition, in assay [2], the % Inhibition of Gli1 reporter, Conditioned Media N = 1, 4 µg/ml worked out at 103% and the % Inhibition of Gli1 reporter, Conditioned Media N = 2, 4 µg/ml turned out to be 112%.
